Experimental data published in the supplement of paper PMC10567573.

B1: KRT18 (parent)
chain: RAQYDELARKNREELDKYWSQQIE

Variants of: B1
Test: protein stability index of a GFP-peptide fusion (GPS, HEK-293T) (PSI 1-6); higher = more stable
Conditions: c terminus: a fixed tail appended
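Further: lentivirally expressed fusions sorted by FACS into six bins by GFP to DsRed ratio, PSI derived from sequencing read proportions per bin multiplied by bin number.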

Row | Variant | protein stability index
1 | R12C | 3.98
2 | R12V | 4.34
3 | R12F | 4.13
4 | R12Q | 4.12
5 | R12A | 4.25
6 | R12T | 4.19
7 | R12Y | 4.05
8 | R12L | 4.56
9 | R12H | 3.64
10 | R12M | 3.72
11 | R12E | 4.27
12 | R12I | 4.34
13 | R12D | 4.17
14 | R12N | 3.94
15 | R12S | 4.56
16 | R12G | 3.32
17 | R12K | 4.37
18 | R12W | 4.56
19 | R12P | 4.08
20 | L15W | 1.95
21 | L15F | 3.22
22 | L15T | 4.1
23 | L15N | 3.57
24 | L15P | 4.6

Row | Variant | protein stability index
25 | L15E | 3.98
26 | L15G | 4.07
27 | L15A | 4.37
28 | L15Y | 3.3
29 | L15M | 4.06
30 | L15R | 4.22
31 | L15I | 3.94
32 | L15D | 4.9
33 | L15S | 4.19
34 | L15K | 3.87
35 | L15C | 3.18
36 | L15Q | 4.71
37 | L15H | 4.25
38 | L15V | 3.41
39 | K17A | 2.7
40 | K17T | 3.21
41 | K17G | 3.57
42 | K17I | 3.16
43 | K17Y | 3.42
44 | K17W | 3.65
45 | K17R | 2.56
46 | K17F | 3.62
47 | K17P | 4.25
48 | K17S | 3.67

Row | Variant | protein stability index
49 | K17L | 3.14
50 | K17Q | 2.96
51 | K17E | 3.94
52 | K17N | 3.02
53 | K17V | 3.64
54 | K17C | 3.28
55 | K17H | 3.14
56 | K17D | 4.21
57 | K17M | 3.51
58 | A2Y | 2.72
59 | A2V | 3.11
60 | A2K | 2.65
61 | A2I | 2.5
62 | A2W | 3.13
63 | A2H | 3.23
64 | A2Q | 3.07
65 | A2P | 3.13
66 | A2F | 2.73
67 | A2M | 2.65
68 | A2T | 2.52
69 | A2R | 3.24
70 | A2S | 3.25
71 | A2N | 2.52
72 | A2G | 2.33

Row | Variant | protein stability index
73 | A2L | 2.51
74 | A8Q | 3.75
75 | A8N | 3.54
76 | A8L | 2.34
77 | A8F | 3.41
78 | A8V | 2.6
79 | A8G | 3.72
80 | A8T | 2.33
81 | A8I | 3.17
82 | A8P | 4.42
83 | A8M | 2.66
84 | A8S | 3.5
85 | A8C | 2.75
86 | A8H | 2.17
87 | A8E | 4.57
88 | A8D | 4.2
89 | A8W | 1.31
90 | A8K | 3.85
91 | A8R | 3.51
92 | E6R | 3.17
93 | E6G | 3.02
94 | E6K | 3.48
95 | E6Y | 3.25
96 | E6A | 3.3

Row | Variant | protein stability index
97 | E6T | 3.36
98 | E6H | 3.41
99 | E6N | 3.66
100 | E6C | 2.3
101 | E6F | 3.15
102 | E6Q | 3.51
103 | E6M | 2.99
104 | E6P | 4.07
105 | E6L | 2.85
106 | E6W | 2.42
107 | E6S | 3.24
108 | E6D | 3.27
109 | E6I | 3.05
110 | E6V | 3.32
111 | E13R | 3.31
112 | E13N | 3.58
113 | E13D | 3.54
114 | E13G | 3.92
115 | E13M | 2.82
116 | E13S | 3.96
117 | E13Q | 2.91
118 | E13W | 2.65
119 | E13T | 3.82
120 | E13K | 3.2

Row | Variant | protein stability index
121 | E13P | 2.99
122 | E13Y | 3.05
123 | E13H | 3.54
124 | E13L | 3.07
125 | E13C | 2.81
126 | E13A | 3.41
127 | E13V | 2.07
128 | E13F | 3.1
129 | E13I | 2.05
130 | N11K | 3.96
131 | N11H | 3.75
132 | N11M | 2.81
133 | N11S | 4.15
134 | N11I | 2.37
135 | N11D | 4.23
136 | N11R | 3.39
137 | N11A | 4
138 | N11T | 2.8
139 | N11C | 2.81
140 | N11V | 2.75
141 | N11L | 2.66
142 | N11Q | 3.87
143 | N11G | 3.71
144 | N11W | 2.63

Row | Variant | protein stability index
145 | N11E | 4.54
146 | N11Y | 2.27
147 | N11P | 4.02
148 | N11F | 1.94
149 | L7T | 3.68
150 | L7S | 3.84
151 | L7A | 3.7
152 | L7H | 3.62
153 | L7F | 1.27
154 | L7P | 4.08
155 | L7W | 2.13
156 | L7C | 3.42
157 | L7I | 3.41
158 | L7Y | 3.06
159 | L7E | 2.75
160 | L7D | 3
161 | L7N | 4.22
162 | L7M | 2.38
163 | L7R | 3.89
164 | L7G | 3.19
165 | L7Q | 3.78
166 | L7K | 3.93
167 | L7V | 3.41
168 | K10P | 3.83

Row | Variant | protein stability index
169 | K10W | 2.81
170 | K10G | 4.05
171 | K10E | 3.33
172 | K10A | 2.97
173 | K10C | 3.02
174 | K10V | 3.15
175 | K10Y | 4.15
176 | K10N | 3.79
177 | K10I | 2.79
178 | K10M | 4.04
179 | K10T | 3.5
180 | K10Q | 3.14
181 | K10S | 3.23
182 | K10F | 3.34
183 | K10H | 4.16
184 | K10L | 3.73
185 | K10D | 4.73
186 | K10R | 3.03
187 | Y18G | 4.27
188 | Y18F | 3.5
189 | Y18S | 4.51
190 | Y18I | 3.97
191 | Y18V | 4.33
192 | Y18Q | 4.77

Row | Variant | protein stability index
193 | Y18K | 4.24
194 | Y18P | 4.34
195 | Y18E | 5.17
196 | Y18C | 3.95
197 | Y18N | 4.92
198 | Y18A | 4.62
199 | Y18L | 4.6
200 | Y18W | 3.62
201 | Y18R | 4.09
202 | Y18D | 5.12
203 | Y18M | 4.36
204 | Y18T | 4.57
205 | Y18H | 4.06
206 | Y4H | 3.45
207 | Y4E | 3.57
208 | Y4S | 3.74
209 | Y4T | 3.91
210 | Y4F | 3.52
211 | Y4R | 4
212 | Y4A | 3.84
213 | Y4V | 4
214 | Y4G | 3.04
215 | Y4N | 3.68
216 | Y4Q | 3.93

Row | Variant | protein stability index
217 | Y4D | 3.23
218 | Y4L | 2.25
219 | Y4K | 3.46
220 | Y4W | 2.48
221 | Y4P | 3.67
222 | Y4I | 3.47
223 | Y4C | 3.44
224 | Y4M | 3.18
225 | D16N | 1.42
226 | D16I | 2.15
227 | D16P | 3.63
228 | D16E | 3.39
229 | D16Q | 2.69
230 | D16G | 2.03
231 | D16M | 2.74
232 | D16F | 2.1
233 | D16H | 3.35
234 | D16Y | 2.72
235 | D16L | 3.12
236 | D16W | 2.21
237 | D16C | 2.4
238 | D16T | 2.92
239 | D16S | 2.36
240 | D16A | 2.56

Row | Variant | protein stability index
241 | D16R | 3.08
242 | Q3P | 2.94
243 | Q3V | 2.31
244 | Q3N | 4.45
245 | Q3S | 2.21
246 | Q3Y | 2.56
247 | Q3L | 2.55
248 | Q3G | 3.21
249 | Q3R | 3.27
250 | Q3D | 3.54
251 | Q3A | 2.68
252 | Q3W | 2.07
253 | Q3T | 2.89
254 | Q3I | 2.44
255 | Q3M | 2.52
256 | Q3H | 2.54
257 | Q3K | 3.19
258 | Q3E | 3.19
259 | Q3F | 2.38
260 | Q3C | 2.51
261 | R9C | 3.6
262 | R9K | 3.52
263 | R9A | 3.92
264 | R9V | 2.86

Row | Variant | protein stability index
265 | R9D | 4.4
266 | R9F | 3.88
267 | R9Q | 3.16
268 | R9T | 3.53
269 | R9G | 4.53
270 | R9I | 3.34
271 | R9S | 3.66
272 | R9N | 3.46
273 | R9E | 3.69
274 | R9Y | 3.64
275 | R9L | 3.27
276 | R9H | 3.4
277 | R9P | 4.28
278 | R9M | 3.17
279 | R9W | 2.62
280 | D5I | 2.98
281 | D5R | 2.79
282 | D5L | 2.33
283 | D5V | 3.57
284 | D5G | 3.09
285 | D5F | 2.83
286 | D5E | 2.86
287 | D5K | 2.84
288 | D5Y | 3.28

Row | Variant | protein stability index
289 | D5T | 3.57
290 | D5P | 3.73
291 | D5S | 2.79
292 | D5N | 3.17
293 | D5H | 3.29
294 | D5Q | 3.38
295 | D5C | 3.33
296 | D5M | 2.75
297 | D5A | 2.74
298 | W19L | 4.42
299 | W19S | 4.25
300 | W19M | 5.01
301 | W19E | 5.28
302 | W19P | 5.03
303 | W19Q | 5.13
304 | W19I | 4.5
305 | W19A | 4.73
306 | W19D | 4.56
307 | W19V | 4.68
308 | W19T | 4.97
309 | W19C | 4.91
310 | W19H | 4.85
311 | W19G | 5.07
312 | W19N | 4.54

Row | Variant | protein stability index
313 | W19R | 4.71
314 | W19K | 4.41
315 | W19F | 4.19
316 | E14Y | 3.07
317 | E14T | 3.56
318 | E14M | 2.92
319 | E14P | 3.81
320 | E14Q | 3.85
321 | E14F | 2.5
322 | E14V | 3.62
323 | E14A | 3.82
324 | E14D | 3.94
325 | E14S | 3.5
326 | E14I | 2.62
327 | E14H | 3.29
328 | E14R | 2.87
329 | E14L | 2.97
330 | E14K | 2.94
331 | E14C | 3.42
332 | E14G | 3.83
333 | E14W | 3.89
334 | E14N | 3.04
